PMC10786891, “Massively parallel profiling of RNA-targeting CRISPR-Cas13d”
Substitutions are numbered along the chain they refer to. In names and notes the source's numbering stands.

B1: target 1 insC 3' of 13,insU 3' of 7 (mixed)
RNA 1: CACCCGUGCAAAAAUGCAGGGGUCUAAAACUGAGCGGAUAACCUCUCUAUGG
RNA 2: GGGAAUGGAUCCACAUCUACGAAUUCGUACCAUAGAGAGCGUUAUCUCGCUCACCGAGAUCGGAAGAGCACACGU
B2: target 1 G17U,C22U (mixed)
RNA 1: B1 RNA 1
RNA 2: GGGAAUGGAUCCACAUCUACGAAUUCGUAUCAUAUAGAGGUUAUCCGCUCACCGAGAUCGGAAGAGCACACGU
B3: target 1 U3G,C6G (mixed)
RNA 1: B1 RNA 1
RNA 2: B2 RNA 2 with U30C, U35G, C46G, U49G
B4: target 1 insU 3' of 20,insA 3' of 3 (mixed)
RNA 1: B1 RNA 1
RNA 2: GGGAAUGGAUCCACAUCUACGAAUUCGUACCAUUAGAGAGGUUAUCCGCUACACCGAGAUCGGAAGAGCACACGU
B5: target 1 del2,del15 (mixed)
RNA 1: B1 RNA 1
RNA 2: GGGAAUGGAUCCACAUCUACGAAUUCGUACCAUAGAAGGUUAUCCGCUACCGAGAUCGGAAGAGCACACGU
B6: target 1 insC 3' of 11,insU 3' of 4 (mixed)
RNA 1: B1 RNA 1
RNA 2: B1 RNA 2 with C40G, G41U, U42C, U47C, C48G, G49C, C50U
B7: target 1 insU 3' of 15,insC 3' of 1 (mixed)
RNA 1: B1 RNA 1
RNA 2: B4 RNA 2 with U34A, A35G, G36A, A37G, G38U, A51C, C52A, A53C
B8: target 1 U8C,U11C (mixed)
RNA 1: B1 RNA 1
RNA 2: B2 RNA 2 with U30C, U35G, U41C, U44C
B9: target 1 insU 3' of 13,insU 3' of 5 (mixed)
RNA 1: B1 RNA 1
RNA 2: B1 RNA 2 with C40U, U47C, C48G, G49U
B10: target 1 U10A,U11C (mixed)
RNA 1: B1 RNA 1
RNA 2: B2 RNA 2 with U30C, U35G, U41C, U42A
B11: target 1 insG 3' of 9,insA 3' of 2 (mixed)
RNA 1: B1 RNA 1
RNA 2: GGGAAUGGAUCCACAUCUACGAAUUCGUACCAUAGAGAGGUUAGUCCGCUCAACCGAGAUCGGAAGAGCACACGU
B12: target 1 insC 3' of 10,insG 3' of 3 (mixed)
RNA 1: B1 RNA 1
RNA 2: B11 RNA 2 with A43C, G44A, C51G, A52C
B13: target 1 insU 3' of 22,insU 3' of 22 (mixed)
RNA 1: B1 RNA 1
RNA 2: GGGAAUGGAUCCACAUCUACGAAUUCGUACUUCAUAGAGAGGUUAUCCGCUCACCGAGAUCGGAAGAGCACACGU
B14: target 1 insC 3' of 11,insG 3' of 6 (mixed)
RNA 1: B1 RNA 1
RNA 2: B1 RNA 2 with C40G, G41U, U42C, U47C, C48G
B15: target 1 insU 3' of 15,insA 3' of 2 (mixed)
RNA 1: B1 RNA 1
RNA 2: B11 RNA 2 with A38U, G39A, U41G, A43U, G44A
B16: target 1 insU 3' of 14,insC 3' of 13 (mixed)
RNA 1: B1 RNA 1
RNA 2: B13 RNA 2 with U31C, U32A, C33U, U35G, G39U, A40G, G41C
B17: target 1 insC 3' of 16,insA 3' of 3 (mixed)
RNA 1: B1 RNA 1
RNA 2: B4 RNA 2 with U34A, A35G, G36A, A37C
B18: target 1 insG 3' of 10,insG 3' of 2 (mixed)
RNA 1: B1 RNA 1
RNA 2: B11 RNA 2 with A43G, G44A, A52G
B19: target 1 insA 3' of 19,insG 3' of 2 (mixed)
RNA 1: B1 RNA 1
RNA 2: B4 RNA 2 with U34A, A51C, C52G
B20: target 1 U19A,C22A (mixed)
RNA 1: B1 RNA 1
RNA 2: B2 RNA 2 with U30A, U33A, U35G
B21: target 1 U3C,U11A (mixed)
RNA 1: B1 RNA 1
RNA 2: B2 RNA 2 with U30C, U35G, U41A, U49C
B22: target 1 U11G,G13A (mixed)
RNA 1: B1 RNA 1
RNA 2: B2 RNA 2 with U30C, U35G, G39A, U41G
B23: target 1 A14U,G15C (mixed)
RNA 1: B1 RNA 1
RNA 2: B2 RNA 2 with U30C, U35G, G37C, A38U
B24: target 1 insU 3' of 15,insG 3' of 1 (mixed)
RNA 1: B1 RNA 1
RNA 2: B11 RNA 2 with A38U, G39A, U41G, A43U, G44A, A53G
B25: target 1 insA 3' of 13,insA 3' of 2 (mixed)
RNA 1: B1 RNA 1
RNA 2: B11 RNA 2 with G40A, U41G, A43U, G44A
B26: target 1 U8G (mixed)
RNA 1: B1 RNA 1
RNA 2: B2 RNA 2 with U30C, U35G, U44G
B27: target 1 G15A,A16U (mixed)
RNA 1: B1 RNA 1
RNA 2: B2 RNA 2 with U30C, U35G, A36U, G37A
B28: target 1 U3C,U10A (mixed)
RNA 1: B1 RNA 1
RNA 2: B2 RNA 2 with U30C, U35G, U42A, U49C
B29: target 1 insC 3' of 13,insA 3' of 8 (mixed)
RNA 1: B1 RNA 1
RNA 2: B1 RNA 2 with C46A, U47C
B30: target 1 A1U,U8G (mixed)
RNA 1: B1 RNA 1
RNA 2: B2 RNA 2 with U30C, U35G, U44G, A51U
B31: target 1 del14,del20 (mixed)
RNA 1: B1 RNA 1
RNA 2: GGGAAUGGAUCCACAUCUACGAAUUCGUACCUAGAGGGUUAUCCGCUCACCGAGAUCGGAAGAGCACACGU
B32: target 1 insU 3' of 22,insA 3' of 3 (mixed)
RNA 1: B1 RNA 1
RNA 2: B4 RNA 2 with C31U, A32C, U33A
B33: target 1 insC 3' of 15,insU 3' of 5 (mixed)
RNA 1: B1 RNA 1
RNA 2: B1 RNA 2 with A38C, G39A, C40G, U47C, C48G, G49U
B34: target 1 A9U,C22A (mixed)
RNA 1: B1 RNA 1
RNA 2: B2 RNA 2 with U30A, U35G, A43U

Target: T1, EsCas13d, nuclease-dead (Eubacterium siraeum, UniProt B0MS50, R295A;H300A;R849A;H854A)
T1 sequence: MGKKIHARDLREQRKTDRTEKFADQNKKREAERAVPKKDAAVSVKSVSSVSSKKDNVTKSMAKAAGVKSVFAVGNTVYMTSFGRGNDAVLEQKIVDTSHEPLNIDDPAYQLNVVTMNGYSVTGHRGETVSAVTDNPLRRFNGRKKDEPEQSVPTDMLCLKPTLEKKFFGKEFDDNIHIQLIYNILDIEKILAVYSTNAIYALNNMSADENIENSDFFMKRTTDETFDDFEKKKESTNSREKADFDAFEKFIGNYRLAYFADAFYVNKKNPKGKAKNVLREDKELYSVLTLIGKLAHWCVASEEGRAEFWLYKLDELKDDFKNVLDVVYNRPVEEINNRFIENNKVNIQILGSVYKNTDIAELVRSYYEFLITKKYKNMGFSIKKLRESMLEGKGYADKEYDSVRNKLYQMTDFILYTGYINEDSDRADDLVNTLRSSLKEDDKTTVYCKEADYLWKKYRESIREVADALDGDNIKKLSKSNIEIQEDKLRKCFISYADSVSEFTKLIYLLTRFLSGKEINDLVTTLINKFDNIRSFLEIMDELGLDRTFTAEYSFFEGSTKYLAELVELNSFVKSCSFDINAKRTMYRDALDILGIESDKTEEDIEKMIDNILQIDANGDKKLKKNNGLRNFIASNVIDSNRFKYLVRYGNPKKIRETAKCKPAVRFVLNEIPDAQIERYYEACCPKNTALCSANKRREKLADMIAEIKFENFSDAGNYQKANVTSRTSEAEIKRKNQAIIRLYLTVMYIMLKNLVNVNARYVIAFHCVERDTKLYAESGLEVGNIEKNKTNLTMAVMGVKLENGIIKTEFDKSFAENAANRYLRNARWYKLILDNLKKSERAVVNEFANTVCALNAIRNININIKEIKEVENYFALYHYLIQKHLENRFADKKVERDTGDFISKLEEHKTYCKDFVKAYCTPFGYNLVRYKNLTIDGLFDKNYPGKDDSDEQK
Test: crRNA (strand 1, pre-loaded); Mg2+; 40 mM Tris-HCl pH 7.5, 150 mM NaCl, 6 mM MgCl2, 1 mM DTT, 0.1% Tween-20, 0.2 mg/ml BSA; 25 C; 10 min per concentration, then washed
Conditions: tags: His6-TwinStrep-SUMO cleaved; N-terminal SNAP kept (SNAP-Surface 488); label: 3' end held by stalled T7 RNA polymerase

Row | Binder | Kd [nM]
1 | B1 | 25.7 ± 1.8
2 | B2 | 32.4 ± 2.8
3 | B3 | 4.32 ± 0.23
4 | B4 | 11.3 ± 1.1
5 | B5 | 42 ± 7
6 | B6 | 23.2 ± 1.8
7 | B7 | 8.8 ± 0.5
8 | B8 | 12.2 ± 0.6
9 | B9 | 22.4 ± 3.3
10 | B10 | 9.96 ± 0.33
11 | B11 | 21.2 ± 2.5
12 | B12 | 9.5 ± 0.5
13 | B13 | 31 ± 8
14 | B14 | 44 ± 8
15 | B15 | 10.9 ± 1.1
16 | B16 | 29 ± 5
17 | B17 | 62 ± 10

Row | Binder | Kd [nM]
18 | B18 | 34.6 ± 3.1
19 | B19 | 19.5 ± 1.3
20 | B20 | 56 ± 7
21 | B21 | ~58
22 | B22 | 16.6 ± 1.6
23 | B23 | ~80
24 | B24 | 11.6 ± 0.7
25 | B25 | 3.1 ± 0.28
26 | B26 | 19.2 ± 0.9
27 | B27 | 24.3 ± 2.3
28 | B28 | 90 ± 40
29 | B29 | 16.6 ± 0.6
30 | B30 | 24.6 ± 1
31 | B31 | 72 ± 25
32 | B32 | 31.5 ± 2.8
33 | B33 | 16.6 ± 1.8
34 | B34 | 16.9 ± 0.9
